Measurements: publication PMC8849274 (Oncotarget, 2022)
Where two headings read alike, the source gives them in different places.

Key:
Assay type in all cases: in vivo
[1] = Biodistribution in mice bearing CaSki xenografts; conditions: female, athymic nude, mouse, iv, total radioactivity; for tissue uptake at 1 h: 1 h p.i.; for tissue uptake at 24 h: 24 h p.i.
From the text: (§1) Animals were supplied by Charles River Laboratories (Wilmington, MA, USA), and were handled in compliance with the Guidelines for Care and Use of Research Animals established by the Division of Comparative Medicine and the Animal Studies Committee of Washington University School of Medicine under protocol #20–0214. Female athymic nude mice were inoculated on the right flank with 10 × 10^6 CaSki or 5 × 10^6 BxPC-3 cells. Tumors were allowed to grow until they approached approximately 100 mm^3 in volume. Radiolabeled peptides were diluted in saline to a dose of 0.37 MBq (10 μCi) per 100 μl. […] For blocking experiments, non-PEGylated peptide (100 μg in 100 μL saline) was injected ten minutes before radiotracer. Blood, lung, liver, spleen, kidney, muscle, heart, bone, and tumor were harvested. The amount of radioactivity in each organ was determined by gamma counting, and the percent injected dose per gram of tissue (% ID/g) was calculated.

[2] = Small animal PET/CT imaging, BxPC-3 tumors; conditions: female, mouse, tumor (BxPC-3 xenograft), iv, total radioactivity, athymic nude mice bearing BxPC-3 tumors, 3.7 MBq i.v., without blocking, n = 3, read-out: SUVmax of tumors
Method: BxPC-3 cells (5 × 10^6) were inoculated in the right shoulder of female athymic nude mice 3–4 weeks before PET imaging sessions. All the experiments involving animals followed the Guidelines for Care and Use of Research Animals established by the Division of Comparative Medicine and the Animal Studies Committee of Washington University School of Medicine under protocol #20–0214. […] Mice were imaged with CT followed by static PET scans at 1, 4, and 24 h after tracer administration on an Inveon small animal PET/CT scanner (Siemens Medical Solutions, Malvern, PA, USA). Static images were collected for 20 min and reconstructed with the maximum a posteriori (MAP) reconstruction algorithm using the Inveon Reseach Workstation image display software (Siemens). Regions of interest (ROI) were selected based on co-registered anatomical CT images, and the associated radioactivity was measured using the Inveon software. The maximum standard uptake value (SUV) was calculated as the highest regional radioactivity concentration (nCi/cc) × animal weight (g)/decay-corrected amount of injected dose (nCi).

[3] = Biodistribution in mice bearing BxPC-3 xenografts; conditions: female, athymic nude, mouse, iv, total radioactivity, BxPC-3 tumor-bearing mice, 1 h p.i.
From the text: as §1

For `CC(C)C[C@H](NC(=O)[C@H](CC(=O)O)NC(=O)CNC(=O)[C@H](CCCNC(=N)N)NC(=O)[C@H](CC(C)C)NC(=O)[C@H](CC(N)=O)NC(=O)[C@@H]1CCCN1C(=O)[C@@H](NC(=O)[C@H](C)NC(=O)[C@H](CC(N)=O)NC(=O)CCOCCOCCOCCOCCOCCOCCOCCOCCOCCOCCOCCOCCOCCOCCOCCOCCOCCOCCOCCOCCOCCOCCOCCOCCOCCOCCOCCOCCNC(=O)CN1CCN(CC(=O)O)CCN(CC(=O)O)CCN(CC(=O)O)CC1)C(C)C)C(=O)N[C@@H](CCC(N)=O)C(=O)N[C@H](C(=O)N[C@@H](CC(C)C)C(=O)N[C@@H](C)C(=O)N[C@@H](CCC(N)=O)C(=O)N[C@@H](CCCCN)C(=O)N[C@H](C(=O)N[C@@H](C)C(=O)N[C@@H](CCCNC(=N)N)C(=O)N[C@H](C(=O)NCCOCCOCCOCCOCCOCCOCCOCCOCCOCCOCCOCCOCCOCCOCCOCCOCCOCCOCCOCCOCCOCCOCCOCCOCCOCCOCCOCCOCCC(N)=O)[C@@H](C)O)C(C)C)C(C)C` [[^64Cu]Cu-DOTA-(PEG28)2-A20FMDV2, metal not drawn], the tissue uptake at 1 h ([1]; blood, CaSki tumor-bearing mice, 0.37 MBq i.v., gamma counting, mean, n = 4, read-out: Uptake in Blood) was 0.22 %ID/g, the tissue uptake at 24 h ([1]; blood, CaSki tumor-bearing mice, 0.37 MBq i.v., read-out: Radioactivity remaining in the blood) was 0.26 ± 0.07 %ID/g and the tissue uptake at 1 h ([1]; blood, CaSki tumor-bearing mice, non-PEGylated A20FMDV2 100 μg injected 10 min before radiotracer, read-out: Uptake in Blood, 1 h Block) was 0.13 %ID/g. It also gave a tissue uptake at 1 h ([1]; bone, CaSki tumor-bearing mice, 0.37 MBq i.v., gamma counting, mean, n = 4, read-out: Uptake in Bone) of 0.62 %ID/g, a tissue uptake at 1 h ([1]; bone, CaSki tumor-bearing mice, non-PEGylated A20FMDV2 100 μg injected 10 min before radiotracer, read-out: Uptake in Bone, 1 h Block) of 0.27 %ID/g and a tissue uptake at 1 h ([1]; heart, CaSki tumor-bearing mice, 0.37 MBq i.v., gamma counting, mean, n = 4, read-out: Uptake in Heart) of 0.71 %ID/g. The tissue uptake at 1 h ([1]; heart, CaSki tumor-bearing mice, non-PEGylated A20FMDV2 100 μg injected 10 min before radiotracer, read-out: Uptake in Heart, 1 h Block) was 0.58 %ID/g, the tissue uptake at 1 h ([1]; kidney, CaSki tumor-bearing mice, 0.37 MBq i.v., gamma counting, mean, n = 4, read-out: Uptake in Kidney) was 42.7 ± 4.03 %ID/g and the tissue uptake at 4 h ([1]; kidney, CaSki tumor-bearing mice, 0.37 MBq i.v., 4 h p.i.) was 37 ± 10.6 %ID/g. The tissue uptake at 24 h ([1]; kidney, CaSki tumor-bearing mice, 0.37 MBq i.v., read-out: Uptake in Kidney) was 21 ± 4.67 %ID/g, the tissue uptake at 1 h ([1]; kidney, CaSki tumor-bearing mice, non-PEGylated A20FMDV2 100 μg injected 10 min before radiotracer, read-out: Uptake in Kidney, 1 h Block) was 35.5 %ID/g and the tissue uptake at 1 h ([1]; liver, CaSki tumor-bearing mice, 0.37 MBq i.v., gamma counting, mean, n = 4, read-out: Uptake in Liver) was 1.04 %ID/g. The tissue uptake at 1 h ([1]; liver, CaSki tumor-bearing mice, non-PEGylated A20FMDV2 100 μg injected 10 min before radiotracer, read-out: Uptake in Liver, 1 h Block) was 0.94 %ID/g, the tissue uptake at 1 h ([1]; lung, CaSki tumor-bearing mice, 0.37 MBq i.v., gamma counting, mean, n = 4, read-out: Uptake in Lung) was 1.37 %ID/g and the tissue uptake at 1 h ([1]; lung, CaSki tumor-bearing mice, non-PEGylated A20FMDV2 100 μg injected 10 min before radiotracer, read-out: Uptake in Lung, 1 h Block) was 1.19 %ID/g. For the same molecule, the tissue uptake at 1 h ([1]; muscle, CaSki tumor-bearing mice, 0.37 MBq i.v., gamma counting, mean, n = 4, read-out: Uptake in Muscle) was 0.73 %ID/g, the tissue uptake at 1 h ([1]; muscle, CaSki tumor-bearing mice, non-PEGylated A20FMDV2 100 μg injected 10 min before radiotracer, read-out: Uptake in Muscle, 1 h Block) was 0.51 %ID/g and the tissue uptake at 1 h ([1]; spleen, CaSki tumor-bearing mice, 0.37 MBq i.v., gamma counting, mean, n = 4, read-out: Uptake in Spleen) was 0.17 %ID/g. The tissue uptake at 1 h ([1]; spleen, CaSki tumor-bearing mice, non-PEGylated A20FMDV2 100 μg injected 10 min before radiotracer, read-out: Uptake in Spleen, 1 h Block) was 0.13 %ID/g, the tissue uptake at 1 h ([1]; tumor (CaSki xenograft), 0.37 MBq i.v., gamma counting, mean, n = 4, read-out: Tumor Uptake) was 0.95 ± 0.29 %ID/g and the tissue uptake at 1 h ([1]; tumor (CaSki xenograft), non-PEGylated A20FMDV2 100 μg injected 10 min before radiotracer, read-out: Tumor uptake, 1 h Block) was 0.65 ± 0.17 %ID/g. The SUV at 1 h ([2]; PET at 1 h) was 0.44 ± 0.02 SUV, the SUV at 4 h ([2]; PET at 4 h) was 0.57 ± 0.15 SUV and the SUV at 24 h ([2]; PET at 24 h) was 0.69 ± 0.09 SUV. It also gave a tissue uptake at 1 h ([3]; blood, 0.37 MBq i.v., gamma counting, mean, n = 4, read-out: Uptake in Blood) of 0.28 %ID/g, a tissue uptake at 1 h ([3]; blood, non-PEGylated A20FMDV2 100 μg injected 10 min before radiotracer, read-out: Uptake in Blood, 1 h Block) of 0.24 %ID/g and a tissue uptake at 1 h ([3]; bone, 0.37 MBq i.v., gamma counting, mean, n = 4, read-out: Uptake in Bone) of 0.25 %ID/g. The tissue uptake at 1 h ([3]; bone, non-PEGylated A20FMDV2 100 μg injected 10 min before radiotracer, read-out: Uptake in Bone, 1 h Block) was 0.28 %ID/g, the tissue uptake at 1 h ([3]; heart, 0.37 MBq i.v., gamma counting, mean, n = 4, read-out: Uptake in Heart) was 1.01 %ID/g and the tissue uptake at 1 h ([3]; heart, non-PEGylated A20FMDV2 100 μg injected 10 min before radiotracer, read-out: Uptake in Heart, 1 h Block) was 0.34 %ID/g. The tissue uptake at 1 h ([3]; 0.37 MBq i.v., gamma counting, mean, n = 4, read-out: Tumor Uptake) was 2.12 ± 0.83 %ID/g, the tissue uptake at 1 h ([3]; kidney, 0.37 MBq i.v., gamma counting, mean, n = 4, read-out: Uptake in Kidney) was 38 %ID/g and the tissue uptake at 1 h ([3]; kidney, non-PEGylated A20FMDV2 100 μg injected 10 min before radiotracer, read-out: Uptake in Kidney, 1 h Block) was 27.6 %ID/g. It also gave a tissue uptake at 1 h ([3]; liver, 0.37 MBq i.v., gamma counting, mean, n = 4, read-out: Uptake in Liver) of 2.79 %ID/g, a tissue uptake at 1 h ([3]; liver, non-PEGylated A20FMDV2 100 μg injected 10 min before radiotracer, read-out: Uptake in Liver, 1 h Block) of 2.59 %ID/g and a tissue uptake at 1 h ([3]; lung, 0.37 MBq i.v., gamma counting, mean, n = 4, read-out: Uptake in Lung) of 1.73 %ID/g. For the same molecule, the tissue uptake at 1 h ([3]; lung, non-PEGylated A20FMDV2 100 μg injected 10 min before radiotracer, read-out: Uptake in Lung, 1 h Block) was 1.14 %ID/g, the tissue uptake at 1 h ([3]; muscle, 0.37 MBq i.v., gamma counting, mean, n = 4, read-out: Uptake in Muscle) was 0.62 %ID/g and the tissue uptake at 1 h ([3]; muscle, non-PEGylated A20FMDV2 100 μg injected 10 min before radiotracer, read-out: Uptake in Muscle, 1 h Block) was 0.18 %ID/g. For the same molecule, the tissue uptake at 1 h ([3]; spleen, 0.37 MBq i.v., gamma counting, mean, n = 4, read-out: Uptake in Spleen) was 0.3 %ID/g, the tissue uptake at 1 h ([3]; spleen, non-PEGylated A20FMDV2 100 μg injected 10 min before radiotracer, read-out: Uptake in Spleen, 1 h Block) was 0.34 %ID/g and the tissue uptake at 1 h ([3]; tumor (BxPC-3 xenograft), non-PEGylated A20FMDV2 100 μg injected 10 min before radiotracer, read-out: Tumor uptake, 1 h Block) was 0.71 ± 0.16 %ID/g.
